Source: paper PMC2707180 (Nature structural & molecular biology, 2008)

B1: GST-tagged C-terminal fragment of Prp8 (1806-2413 aa) (domain or fragment)
chain: MKANPALYVLRERIRKGLQIYQSSVQEPFLNSSNYAELFNNDIKLFVDDTNVYRVTVHKTFEGNVATKAINGCIFTLNPKTGHLFLKIIHTSVWAGQKRLSQLAKWKTAEEVSALVRSLPKEEQPKQIIVTRKAMLDPLEVHMLDFPNIAIRPTELRLPFSAAMSIDKLSDVVMKATEPQMVLFNIYDDWLDRISSYTAFSRLTLLLRALKTNEESAKMILLSDPTITIKSYHLWPSFTDEQWITIESQMRDLILTEYGRKYNVNISALTQTEIKDIILGQNIKAPSVKRQKMAELEAARSEKQNDEEAAGASTVMKTKTINAQGEEIVVVASADYESQTFSSKNEWRKSAIANTLLYLRLKNIYVSADDFVEEQNVYVLPKNLLKKFIEISDVKIQVAAFIYGMSAKDHPKVKEIKTVVLVPQLGHVGSVQISNIPDIGDLPDTEGLELLGWIHTQTEELKFMAASEVATHSKLFADKKRDCIDISIFSTPGSVSLSAYNLTDEGYQWGEENKDIMNVLSEGFEPTFSTHAQLLLSDRITGNFIIPSGNVWNYTFMGTAFNQEGDYNFKYGIPLEFYNEMHRPVHFLQFSELAGDEELEAEQIDVFS
B2: GST-tagged Prp8-CTF with the RP mutation R2388K (domain or fragment)
chain: MKANPALYVLRERIRKGLQIYQSSVQEPFLNSSNYAELFNNDIKLFVDDTNVYRVTVHKTFEGNVATKAINGCIFTLNPKTGHLFLKIIHTSVWAGQKRLSQLAKWKTAEEVSALVRSLPKEEQPKQIIVTRKAMLDPLEVHMLDFPNIAIRPTELRLPFSAAMSIDKLSDVVMKATEPQMVLFNIYDDWLDRISSYTAFSRLTLLLRALKTNEESAKMILLSDPTITIKSYHLWPSFTDEQWITIESQMRDLILTEYGRKYNVNISALTQTEIKDIILGQNIKAPSVKRQKMAELEAARSEKQNDEEAAGASTVMKTKTINAQGEEIVVVASADYESQTFSSKNEWRKSAIANTLLYLRLKNIYVSADDFVEEQNVYVLPKNLLKKFIEISDVKIQVAAFIYGMSAKDHPKVKEIKTVVLVPQLGHVGSVQISNIPDIGDLPDTEGLELLGWIHTQTEELKFMAASEVATHSKLFADKKRDCIDISIFSTPGSVSLSAYNLTDEGYQWGEENKDIMNVLSEGFEPTFSTHAQLLLSDRITGNFIIPSGNVWNYTFMGTAFNQEGDYNFKYGIPLEFYNEMHKPVHFLQFSELAGDEELEAEQIDVFS
B3: GST-tagged Prp8-CTF with the RP mutation F2382L (domain or fragment)
chain: MKANPALYVLRERIRKGLQIYQSSVQEPFLNSSNYAELFNNDIKLFVDDTNVYRVTVHKTFEGNVATKAINGCIFTLNPKTGHLFLKIIHTSVWAGQKRLSQLAKWKTAEEVSALVRSLPKEEQPKQIIVTRKAMLDPLEVHMLDFPNIAIRPTELRLPFSAAMSIDKLSDVVMKATEPQMVLFNIYDDWLDRISSYTAFSRLTLLLRALKTNEESAKMILLSDPTITIKSYHLWPSFTDEQWITIESQMRDLILTEYGRKYNVNISALTQTEIKDIILGQNIKAPSVKRQKMAELEAARSEKQNDEEAAGASTVMKTKTINAQGEEIVVVASADYESQTFSSKNEWRKSAIANTLLYLRLKNIYVSADDFVEEQNVYVLPKNLLKKFIEISDVKIQVAAFIYGMSAKDHPKVKEIKTVVLVPQLGHVGSVQISNIPDIGDLPDTEGLELLGWIHTQTEELKFMAASEVATHSKLFADKKRDCIDISIFSTPGSVSLSAYNLTDEGYQWGEENKDIMNVLSEGFEPTFSTHAQLLLSDRITGNFIIPSGNVWNYTFMGTAFNQEGDYNFKYGIPLELYNEMHRPVHFLQFSELAGDEELEAEQIDVFS

These binders were tested against full-length Brr2 with C-terminal calmodulin-binding domain (S. cerevisiae, UniProt P32639 1-2163) (assay: pull-down).
Sequence of full-length Brr2 with C-terminal calmodulin-binding domain (P32639 whole entry, the tested form may be a part): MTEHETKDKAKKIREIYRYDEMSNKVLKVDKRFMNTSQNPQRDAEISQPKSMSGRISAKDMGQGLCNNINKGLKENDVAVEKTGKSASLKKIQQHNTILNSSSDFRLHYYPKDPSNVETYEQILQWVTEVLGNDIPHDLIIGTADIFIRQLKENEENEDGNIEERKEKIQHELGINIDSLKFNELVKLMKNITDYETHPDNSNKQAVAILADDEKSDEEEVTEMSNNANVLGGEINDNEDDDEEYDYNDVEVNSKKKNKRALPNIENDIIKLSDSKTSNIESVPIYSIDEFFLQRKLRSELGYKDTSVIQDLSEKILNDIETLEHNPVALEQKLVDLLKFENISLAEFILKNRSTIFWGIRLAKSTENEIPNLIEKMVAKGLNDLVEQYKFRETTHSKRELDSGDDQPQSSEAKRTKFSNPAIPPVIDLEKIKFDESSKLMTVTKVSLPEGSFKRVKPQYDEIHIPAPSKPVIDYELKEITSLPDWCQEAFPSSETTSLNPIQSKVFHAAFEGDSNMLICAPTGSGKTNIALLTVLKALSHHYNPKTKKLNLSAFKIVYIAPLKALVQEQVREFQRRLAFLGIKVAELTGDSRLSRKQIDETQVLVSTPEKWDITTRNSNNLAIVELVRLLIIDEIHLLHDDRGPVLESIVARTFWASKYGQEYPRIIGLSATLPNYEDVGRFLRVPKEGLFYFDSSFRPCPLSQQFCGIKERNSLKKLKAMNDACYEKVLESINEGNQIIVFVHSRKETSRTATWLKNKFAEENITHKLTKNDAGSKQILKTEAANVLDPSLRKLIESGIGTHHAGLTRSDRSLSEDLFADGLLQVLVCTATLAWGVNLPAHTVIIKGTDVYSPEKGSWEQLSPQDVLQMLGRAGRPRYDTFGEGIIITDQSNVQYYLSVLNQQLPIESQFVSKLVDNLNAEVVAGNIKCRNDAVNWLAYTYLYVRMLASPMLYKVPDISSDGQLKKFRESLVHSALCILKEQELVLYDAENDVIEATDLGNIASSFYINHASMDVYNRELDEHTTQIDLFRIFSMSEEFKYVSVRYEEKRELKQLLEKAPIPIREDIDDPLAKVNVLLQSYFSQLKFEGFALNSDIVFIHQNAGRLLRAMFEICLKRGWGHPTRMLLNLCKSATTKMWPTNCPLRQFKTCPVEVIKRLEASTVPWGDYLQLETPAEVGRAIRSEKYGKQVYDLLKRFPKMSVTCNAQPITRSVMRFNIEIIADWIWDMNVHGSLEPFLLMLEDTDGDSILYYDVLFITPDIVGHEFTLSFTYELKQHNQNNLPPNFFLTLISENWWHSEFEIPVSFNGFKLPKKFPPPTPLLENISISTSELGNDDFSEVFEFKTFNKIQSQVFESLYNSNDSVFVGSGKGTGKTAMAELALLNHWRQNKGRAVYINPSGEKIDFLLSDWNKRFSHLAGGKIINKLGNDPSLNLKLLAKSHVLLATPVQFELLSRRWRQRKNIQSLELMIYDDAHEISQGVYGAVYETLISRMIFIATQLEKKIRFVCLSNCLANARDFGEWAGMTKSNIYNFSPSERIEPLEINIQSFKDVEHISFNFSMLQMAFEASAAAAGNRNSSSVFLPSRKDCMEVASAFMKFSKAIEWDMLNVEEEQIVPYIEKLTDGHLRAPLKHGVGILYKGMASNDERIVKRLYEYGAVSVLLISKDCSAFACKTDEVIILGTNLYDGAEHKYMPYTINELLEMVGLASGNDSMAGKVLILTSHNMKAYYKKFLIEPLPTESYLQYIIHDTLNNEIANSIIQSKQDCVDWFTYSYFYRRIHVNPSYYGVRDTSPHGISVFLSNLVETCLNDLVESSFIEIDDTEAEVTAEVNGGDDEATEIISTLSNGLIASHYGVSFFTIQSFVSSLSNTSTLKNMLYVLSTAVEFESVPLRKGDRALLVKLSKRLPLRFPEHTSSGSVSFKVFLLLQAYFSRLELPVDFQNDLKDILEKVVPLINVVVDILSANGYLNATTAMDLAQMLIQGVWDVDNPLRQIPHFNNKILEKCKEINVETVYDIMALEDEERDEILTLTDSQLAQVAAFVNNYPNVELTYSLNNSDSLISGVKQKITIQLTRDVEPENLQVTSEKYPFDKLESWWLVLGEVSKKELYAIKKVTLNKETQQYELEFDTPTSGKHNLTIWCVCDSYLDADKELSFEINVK

Binding result, binds:
B1
B2
B3
